Laboratory results reported in patent publication US6353097.

biological target: rat FcεRI (α, β and γ subunits) on CHO-B12 cells (UniProt P12371); experiment: not given

Row | Substance | antigen-induced phosphorylation of receptor tyrosines
1 | full length, catalytically inactive Lyn B kinase (Lys279 to Arg), rat, expressed in CHO-B12 cells | 20-75% less antigen-induced phosphorylation of receptor tyrosines than cells transfected with the vector alone

biological target: C-terminal (201-243) cytoplasmic domain of the rat FcεRIβ, Gal 4 DNA binding domain fusion protein (pAS2-1-βC) (rat); experiment: yeast two-hybrid, liquid β-galactosidase assay, strain Y187

Row | LacZ reporter (β-galactosidase) activity, fold over the negative control pACT-27-66-OOF | strength of the interaction by β-galactosidase activity, relative to p53 and SV40 | Substance
2 | 3 fold | 1 per cent | full length Lyn A, Gal 4-activation domain-kinase fusion protein (from UniProt P04386 768-881) (enzyme)
3 | 3 fold | 1 per cent | full length Lyn B, Gal 4-activation domain-kinase fusion protein (from UniProt P04386 768-881) (enzyme)
4 | 3 fold | 1 per cent | unique domain of Lyn B (amino acids 1-45), Gal 4-activation domain fusion protein (from UniProt Q07014 1-66)
5 | 3 fold | 1 per cent | unique domain of Lyn A (amino acids 1-66), Gal 4-activation domain fusion protein (from UniProt Q07014 1-66)
